Measured values as given in FireProtDB (doi:10.1021/bi992257j).

B1: Rubredoxin, P24297 (parent)
chain: MAKWVCKICGYIYDEDAGDPDNGISPGTKFEELPDDWVCPICGAPKSEFEKLED

Variants of: B1
Settings: Pyrococcus furiosus (strain ATCC 43587 / DSM 3638 / JCM 8422 / Vc1), pH 6.3, CD, Sodium phosphate 50 mM, reversible: yes, structure 1BRF, whole UniProt chain shown; for denaturant m value / denaturant midpoint (higher = more stable) / unfolding free energy: 1 °C; for Tm: Thermal

MAKWVLKITGYIYDEDAGDPDNGISPGTKFEELPDDWVAPITGAPKSEFEKLED
denaturant m value (GdnHCl): 1.9 kcal/mol/M
denaturant midpoint (higher = more stable) (GdnHCl): 1.68 M
unfolding free energy (GdnHCl): 13.4 kJ/mol
Tm: 82 °C

MQKWVLKITGYIYDEDAGDPDNGISPGTKFEELPDDWVAPITGAPKSEFEKLED
denaturant m value (Urea): 0.93 kcal/mol/M
denaturant midpoint (higher = more stable) (Urea): 3.8 M
unfolding free energy (Urea): 14.6 kJ/mol
Tm: 63 °C

MAKWVLKITGYIYDTDAGDPDNGISPGTKFEELPDDWVAPITGAPKSEFEKLED
denaturant m value (Urea): 0.98 kcal/mol/M
denaturant midpoint (higher = more stable) (Urea): 1.3 M
unfolding free energy (Urea): 5.44 kJ/mol
Tm: 38 °C

MAKWVLKITGYIYDQDAGDPDNGISPGTKFEELPDDWVAPITGAPKSEFEKLED
denaturant m value (GdnHCl): 2.5 kcal/mol/M
denaturant midpoint (higher = more stable) (GdnHCl): 0.63 M
unfolding free energy (GdnHCl): 7.11 kJ/mol
denaturant m value (Urea): 0.91 kcal/mol/M
denaturant midpoint (higher = more stable) (Urea): 3 M
unfolding free energy (Urea): 11.3 kJ/mol
Tm: 57 °C

MAKWVLAITGYIYDEDAGDPDNGISPGTKFEELPDDWVAPITGAPKSEFEKLED
denaturant m value (GdnHCl): 2 kcal/mol/M
denaturant midpoint (higher = more stable) (GdnHCl): 1.6 M
unfolding free energy (GdnHCl): 13.4 kJ/mol
denaturant m value (Urea): 0.81 kcal/mol/M
denaturant midpoint (higher = more stable) (Urea): 4.9 M
unfolding free energy (Urea): 16.7 kJ/mol
Tm: 74 °C

MQKWVLKITGYIYDTDAGDPDNGISPGTKFEELPDDWVAPITGAPKSEFEKLED
denaturant m value (Urea): 1.03 kcal/mol/M
denaturant midpoint (higher = more stable) (Urea): 1.6 M
unfolding free energy (Urea): 7.11 kJ/mol
Tm: 41 °C

MQKWVLKITGYIYDQDAGDPDNGISPGTKFEELPDDWVAPITGAPKSEFEKLED
denaturant m value (GdnHCl): 3 kcal/mol/M
denaturant midpoint (higher = more stable) (GdnHCl): 0.5 M
unfolding free energy (GdnHCl): 6.28 kJ/mol
denaturant m value (Urea): 1.03 kcal/mol/M
denaturant midpoint (higher = more stable) (Urea): 2 M
unfolding free energy (Urea): 8.79 kJ/mol
Tm: 39 °C

MAKWVLKITGYIYDEDAGDPDNGISPGTKFEELPDDWVAPITGAPKSEFAKLED
denaturant m value (GdnHCl): 2.3 kcal/mol/M
denaturant midpoint (higher = more stable) (GdnHCl): 1.35 M
unfolding free energy (GdnHCl): 13 kJ/mol
denaturant m value (Urea): 0.86 kcal/mol/M
denaturant midpoint (higher = more stable) (Urea): 4.8 M
unfolding free energy (Urea): 17.2 kJ/mol
Tm: 77 °C

MAKWVLAITGYIYDEDAGDPDNGISPGTKFEELPDDWVAPITGAPKSEFAKLED
denaturant m value (GdnHCl): 2.2 kcal/mol/M
denaturant midpoint (higher = more stable) (GdnHCl): 1.27 M
unfolding free energy (GdnHCl): 11.7 kJ/mol
denaturant m value (Urea): 0.84 kcal/mol/M
denaturant midpoint (higher = more stable) (Urea): 4.5 M
unfolding free energy (Urea): 15.9 kJ/mol
Tm: 74 °C
